Measurements from patent US11160871B2, “SSTR-targeted conjugates and particles and formulations thereof” (TARVEDA THERAPEUTICS, INC., priority 2015, dated 2021).

What was measured:
SSTR5 = SSTR5 (Homo sapiens, UniProt P35346); test: Radioligand-receptor binding assay, same method; settings: read-out: Conjugate 57 Ki
Experimental: (§1) Two conjugates were assessed in an in vitro assay evaluating binding to the somatostatin receptor 2 (SSTR2). A radioligand-receptor binding assay was conducted at Eurofins Panlabs (Taiwan) to determine the affinity of conjugates described herein to the SSTR2. The assay measures binding of radiolabeled ligand, [^125I] labeled somatostatin, to human SSTR2 using membrane preparations from SSTR2 expressing CHO-K1 cells. Membranes were incubated with radiolabeled somatostatin (0.03 nM) in the presence of conjugate/compound starting at a dose of 10 uM using 6× serial dilutions to obtain a 10-pt curve. After a four hour incubation, membranes were filtered and washed 3× and counted to determine the remaining[^125 I] somatostatin bound to the receptor. IC50 values were determined by a non-linear, least squares regression analysis using MathIQ™ (ID Business Solutions Ltd., UK). The Ki values were calculated using the equation of Cheng and Prusoff (Cheng and Prusoff, Biochem. Pharmacol. 22:3099-3108, 1973) using the observed IC50 of the tested conjugate/compound, the concentration of radioligand employed in the assay, and the historical values for the KD of the ligand obtained at Eurofins.
(§2) In another study, the binding of Conjugate 57 to the five SSTRs was measured with the same method. Conjugate 57 binds selectively and with high affinity to SSTR2.

SSTR4 = SSTR4 (Homo sapiens, UniProt P31391); test: Radioligand-receptor binding assay, same method; settings: read-out: Conjugate 57 Ki
Sequence of SSTR4 (P31391 whole entry): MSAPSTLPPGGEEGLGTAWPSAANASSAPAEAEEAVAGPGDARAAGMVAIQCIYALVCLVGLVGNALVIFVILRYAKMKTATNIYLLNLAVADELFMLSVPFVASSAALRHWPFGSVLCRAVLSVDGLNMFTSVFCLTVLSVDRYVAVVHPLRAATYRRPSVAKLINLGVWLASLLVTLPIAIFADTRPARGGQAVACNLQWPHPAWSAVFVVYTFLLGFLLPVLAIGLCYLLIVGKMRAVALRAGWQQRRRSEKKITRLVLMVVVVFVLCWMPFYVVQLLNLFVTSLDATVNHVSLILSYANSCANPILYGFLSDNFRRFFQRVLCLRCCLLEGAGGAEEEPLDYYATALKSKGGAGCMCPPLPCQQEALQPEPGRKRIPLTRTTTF
Experimental: as §1, §2

SSTR1 = SSTR1 (Homo sapiens, UniProt P30872); test: Radioligand-receptor binding assay, same method; settings: read-out: Conjugate 57 Ki
Sequence of SSTR1 (P30872 whole entry): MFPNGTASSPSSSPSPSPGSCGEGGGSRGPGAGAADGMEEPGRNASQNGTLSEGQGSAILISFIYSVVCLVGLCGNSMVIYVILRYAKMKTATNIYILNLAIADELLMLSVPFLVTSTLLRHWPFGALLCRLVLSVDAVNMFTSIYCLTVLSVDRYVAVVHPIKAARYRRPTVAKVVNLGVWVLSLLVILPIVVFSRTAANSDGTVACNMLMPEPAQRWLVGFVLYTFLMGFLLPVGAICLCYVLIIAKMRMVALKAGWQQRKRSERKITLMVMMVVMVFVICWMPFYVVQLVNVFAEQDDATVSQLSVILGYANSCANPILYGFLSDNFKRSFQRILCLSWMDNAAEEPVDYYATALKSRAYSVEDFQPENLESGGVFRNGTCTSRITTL
Experimental: as §1, §2

SSTR3 = SSTR3 (Homo sapiens, UniProt P32745); test: Radioligand-receptor binding assay, same method; settings: read-out: Conjugate 57 Ki
Sequence of SSTR3 (P32745 whole entry): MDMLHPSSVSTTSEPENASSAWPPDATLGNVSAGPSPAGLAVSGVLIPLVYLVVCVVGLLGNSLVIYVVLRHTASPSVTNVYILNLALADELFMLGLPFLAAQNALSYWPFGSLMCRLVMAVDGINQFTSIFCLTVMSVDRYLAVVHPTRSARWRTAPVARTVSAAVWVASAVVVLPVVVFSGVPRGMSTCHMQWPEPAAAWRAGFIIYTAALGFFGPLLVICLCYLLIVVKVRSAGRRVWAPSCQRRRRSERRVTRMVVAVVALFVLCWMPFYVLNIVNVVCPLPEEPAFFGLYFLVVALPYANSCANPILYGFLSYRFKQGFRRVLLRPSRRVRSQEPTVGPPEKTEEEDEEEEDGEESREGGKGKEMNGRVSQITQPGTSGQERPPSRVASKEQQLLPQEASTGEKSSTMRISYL
Experimental: as §1, §2

[1] = Single dose exploratory toxicity study; type: in vivo, SD female rat
Experimental: Single dose exploratory toxicity studies in SD female rat (dose 0.5 mg/kg to 1.5 mg/kg) for 7-10 days were carried out. Clinical observations, body weight, clinical blood chemistry, histopathology, and complete blood counts were assessed. In the 10-day study, DM1 (0.4 mg/kg) was compared to Conjugate 57 at an equivalent dose of DM1 (1.0 mg/kg of conjugate) and at a 50% higher dose (1.5 mg/kg of conjugate).
Decreased white blood cell (WBC) count is a known dose limiting toxicity of DM1. WBC count was tracked in all groups.
Liver toxicity is also a know dose limiting toxicity of DM1. Alanine transaminase (ALT) and aspartate aminotransferase (AST) are markers of liver toxicity and were measured in all groups.

[2] = Membrane permeability in Caco-2 monolayers; type: in vitro ADME; settings: human, Caco-2; Test Conc. 10 uM
Experimental: (§3) Membrane permeability of Conjugate 57 was measured in Caco-2 monolayers. The apparent permeability (Papp) was determined to be very low in both the apical to basolateral direction and the basolateral to apical direction.

Caco-2 monolayers = test: Membrane permeability in Caco-2 monolayers; type: in vitro ADME; settings: Test Conc. 10 uM
Experimental: as §3

NCI-H69 tumors = test: NCI-H69 tumor volume study, 2 doses; type: in vivo, mice
Experimental: In another study, 10 mice bearing NCI-H69 tumors were given 2 doses of Conjugate 57 at 2 mg/kg each. 9 mice bearing NCI-H69 tumors were given 2 doses of Conjugate 57 at 1.3 mg/kg each. All 10 animals dosed at 2 mg/kg had no detectable tumors at study end. Conjugate 57 More than half (5 out of 9) animals dosed at 1.3 mg/kg had no detectable tumors at study end.

Sequence of SSTR5 (P35346 whole entry): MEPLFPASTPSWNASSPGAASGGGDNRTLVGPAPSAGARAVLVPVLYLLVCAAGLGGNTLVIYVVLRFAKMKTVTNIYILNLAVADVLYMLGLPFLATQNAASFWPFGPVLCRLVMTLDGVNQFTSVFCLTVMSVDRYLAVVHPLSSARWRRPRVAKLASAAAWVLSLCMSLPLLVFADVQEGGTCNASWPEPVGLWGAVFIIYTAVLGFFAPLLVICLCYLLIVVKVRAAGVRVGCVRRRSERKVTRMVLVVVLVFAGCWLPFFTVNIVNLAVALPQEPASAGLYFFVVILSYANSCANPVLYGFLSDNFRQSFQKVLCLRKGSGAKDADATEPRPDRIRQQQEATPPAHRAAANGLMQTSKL

Q: With `COc1cc2cc(c1Cl)N(C)C(=O)C[C@H](OC(=O)[C@H](C)N(C)C(=O)CCSSC[C@H](NC(=O)[C@@H]1CSSC[C@H](NC(=O)[C@H](N)Cc3ccccc3)C(=O)N[C@@H](Cc3ccc(O)cc3)C(=O)N[C@H](Cc3c[nH]c4ccccc34)C(=O)N[C@@H](CCCCN)C(=O)N[C@@H]([C@@H](C)O)C(=O)N1)C(N)=O)[C@]1(C)O[C@H]1[C@H](C)[C@@H]1C[C@@](O)(NC(=O)O1)[C@H](OC)/C=C/C=C(\C)C2` [Conjugate 57] as the compound, how does the Ki (SSTR5) read?
A: 9.6 nM

Q: And the Ki (SSTR4)?
A: 5480 nM

Q: And the Ki (SSTR1)?
A: 310 nM

Q: And the Ki (SSTR3)?
A: 19.8 nM

Q: What about the “AST and ALT” value ([1]; 1.0 mg/kg) of the same compound?
A: no effects on AST and ALT

Q: And the “Day 5 weight change (%)” value ([1]; 1.0 mg/kg)?
A: −0.73%

Q: And the “Day 10 weight change (%)” value ([1]; 1.0 mg/kg)?
A: +1.8%

Q: What about the “complete blood count (CBC) and WBC count” value ([1]; 1.0 mg/kg and […]) of the same compound?
A: no significant changes in complete blood count (CBC) and WBC count

Q: And the tolerability ([1]; 1.0 and […] versus DM1 0.4 mg/kg, 10-day study)?
A: significantly improved tolerability versus DM1

Q: What about the Papp A→B at 10 uM [2] of the same compound?
A: 0.018 ×10⁻⁶ cm/s

Q: And the Papp B→A at 10 uM [2]?
A: 0.094 ×10⁻⁶ cm/s

Q: And the “Mean A→B Papp” value (Caco-2 monolayers)?
A: very low

Q: What about the “Mean B→A Papp” value (Caco-2 monolayers) of the same compound?
A: very low

Q: And the “animals with no detectable tumors at study end” value (NCI-H69 tumors; 2 doses at 1.3 mg/kg each, 9 mice)?
A: 5 out of 9

Q: And the “animals with no detectable tumors at study end” value (NCI-H69 tumors; 2 doses at 2 mg/kg each, 10 mice)?
A: 10
